Assay results from US10377811B2, “Peptides, combination of peptides as targets and for use in immunotherapy against gallbladder cancer and cholangiocarcinoma and other cancers” (Immatics biotechnologies GmbH, priority 2016, dated 2019).

Legend:
[1] = biological target: HLA-A*02:01 (Homo sapiens, UniProt P04439, D140Y/D185E/D98H/E176V/E277Q/G131W/G231S/I119V/I121R/I166T/I218V/L300P/L318F/N151K/N90K/P208A/P217A/Q86G/Q94H/R138H/R169H/T345S); test: MHC binding assay (UV-ligand exchange, β2m ELISA); settings: peptide exchange yield
Source text: Candidate peptides for T cell based therapies according to the present invention were further tested for their MHC binding capacity (affinity). The individual peptide-MHC complexes were produced by UV-ligand exchange, where a UV-sensitive peptide is cleaved upon UV-irradiation, and exchanged with the peptide of interest as analyzed. Only peptide candidates that can effectively bind and stabilize the peptide-receptive MHC molecules prevent dissociation of the MHC complexes. To determine the yield of the exchange reaction, an ELISA was performed based on the detection of the light chain (β2m) of stabilized MHC complexes. The assay was performed as generally described in Rodenko et al. (Rodenko et al., 2006).
96 well MAXISorp plates (NUNC) were coated over night with 2 ug/ml streptavidin in PBS at room temperature, washed 4× and blocked for 1 h at 37° C. in 2% BSA containing blocking buffer. Refolded HLA-A*02:01/MLA-001 monomers served as standards, covering the range of 15-500 ng/ml. Peptide-MHC monomers of the UV-exchange reaction were diluted 100-fold in blocking buffer. Samples were incubated for 1 h at 37° C., washed four times, incubated with 2 ug/ml HRP conjugated anti-β2 m for 1 h at 37° C., washed again and detected with TMB solution that is stopped with […]. Absorption was measured at 450 nm. Candidate peptides that show a high exchange yield (preferably higher than 50%, most preferred higher than 75%) are generally preferred for a generation and production of antibodies or fragments thereof, and/or T cell receptors or fragments thereof, as they show sufficient avidity to the MHC molecules and prevent dissociation of the MHC complexes.

[2] = tested on: CD8+ T cells of healthy HLA-A*02 donors; test: In vitro T-cell priming immunogenicity assay with aAPCs loaded with peptide/MHC complexes and anti-CD28 antibody, multimer readout; type: cell-based, human; settings: for Wells positive [%]: HLA-A*02 restricted peptides, percentage of positive wells among evaluable, Table 10B; for wells (in vitro immunogenicity): HLA class I peptides, Table 10A
Source text: In order to obtain information regarding the immunogenicity of the TUMAPs of the present invention, the inventors performed investigations using an in vitro T-cell priming assay based on repeated stimulations of CD8+ T cells with artificial antigen presenting cells (aAPCs) loaded with peptide/MHC complexes and anti-CD28 antibody.
In order to perform in vitro stimulations by artificial antigen presenting cells loaded with peptide-MHC complex (pMHC) and anti-CD28 antibody, the inventors first isolated CD8+ T cells from fresh HLA-A*02 leukapheresis products via positive selection using CD8 microbeads (Miltenyi Biotec, Bergisch-Gladbach, Germany) of healthy donors obtained from the University clinics Mannheim, Germany, after informed consent.
PBMCs and isolated CD8+ lymphocytes were incubated in T-cell medium (TCM) until use consisting of RPMI-Glutamax (Invitrogen, Karlsruhe, Germany) supplemented with 10% heat inactivated human AB serum (PAN-Biotech, Aidenbach, Germany), 100 U/ml Penicillin/100 μg/ml Streptomycin (Cambrex, Cologne, Germany), 1 mM sodium pyruvate (CC Pro, Oberdorla, Germany), 20 μg/ml Gentamycin (Cambrex). 2.5 ng/ml IL-7 (PromoCell, Heidelberg, Germany) and 10 U/ml IL-2 (Novartis Pharma, Nürnberg, Germany) were also added to the TCM at this step.
Generation of pMHC/anti-CD28 coated beads, T-cell stimulations and readout was performed in a highly defined in vitro system using four different pMHC molecules per stimulation condition and 8 different pMHC molecules per readout condition.
The purified co-stimulatory mouse IgG2a anti human CD28 Ab 9.3 (Jung et al., 1987) was chemically biotinylated using Sulfo-N-hydroxysuccinimidobiotin as recommended by the manufacturer (Perbio, Bonn, Germany). Beads used were 5.6 μm diameter streptavidin coated polystyrene particles (Bangs Laboratories, Ill., USA).
800.000 beads/200 μl were coated in 96-well plates in the presence of 4×12.5 ng different biotin-pMHC, washed and 600 ng biotin anti-CD28 were added subsequently in a volume of 200 μl. Stimulations were initiated in 96-well plates by co-incubating […] CD8+ T cells with 2×10^5 washed coated beads in 200 μl TCM supplemented with 5 ng/ml IL-12 (PromoCell) for 3 days at 37° C. Half of the medium was then exchanged by fresh TCM supplemented with 80 U/ml IL-2 and incubating was continued for 4 days at 37° C. This stimulation cycle was performed for a total of three times. For the pMHC multimer readout using 8 different pMHC molecules per condition, a two-dimensional combinatorial coding approach was used as previously described (Andersen et al., 2012) with minor modifications encompassing coupling to 5 different fluorochromes. Finally, multimeric analyses were performed by staining the cells with Live/dead near IR dye (Invitrogen, Karlsruhe, Germany), CD8-FITC antibody clone SK1 (BD, Heidelberg, Germany) and fluorescent pMHC multimers. For analysis, a BD LSRII SORP cytometer equipped with appropriate lasers and filters was used. Peptide specific cells were calculated as percentage of total CD8+ cells. Evaluation of multimeric analysis was done using the FlowJo software (Tree Star, Oreg., USA). In vitro priming of specific multimer+ CD8+ lymphocytes was detected by comparing to negative control stimulations.

Substance	Peptide exchange (MHC class I binding score) [1]	Wells positive [%] [2]	wells (in vitro immunogenicity) [2]
1 (YAAEIASAL; listed as Homo sapiens) [compound 1]	+++ (>50 = +++)		
2 (AAYPEIVAV; listed as Homo sapiens) [compound 2]	+++ (>50 = +++)		
3 (EMDSTVITV; listed as Homo sapiens) [compound 3]	+++ (>50 = +++)		
4 (FLLEAQNYL; listed as Homo sapiens) [compound 4]	++++ (>75% = ++++)		
5 (GLIDEVMVLL; listed as Homo sapiens) [compound 5]	++++ (>75% = ++++)		
6 (LLLPLLPPLSPS; listed as Homo sapiens) [compound 6]	++++ (>75% = ++++)	+ (<20% = +)	
7 (LLLSDPDKVTI; listed as Homo sapiens) [compound 7]	++++ (>75% = ++++)		
8 (LSASLVRIL; listed as Homo sapiens) [compound 8]	+ (>10% = +)		
9 (RLAKLTAAV; listed as Homo sapiens) [compound 9]	++++ (>75% = ++++)		
10 (SAFPFPVTVSL; listed as Homo sapiens) [compound 10]	++ (>20% = ++)		
11 (SIIDFTVTM; listed as Homo sapiens) [compound 11]	++++ (>75% = ++++)		
12 (TILPGNLQSW; listed as Homo sapiens) [compound 12]	+ (>10% = +)		
13 (VLPRAFTYV; listed as Homo sapiens) [compound 13]	++++ (>75% = ++++)	++++ (> = 70% = ++++)	
14 (YGIEFVVGV; listed as Homo sapiens) [compound 14]	++++ (>75% = ++++)		
15 (SVIDSLPEI; listed as Homo sapiens) [compound 15]	++++ (>75% = ++++)		
16 (AVMTDLPVI; listed as Homo sapiens) [compound 16]	++++ (>75% = ++++)	+ (<20% = +)	
17 (VLYDNTQLQL; listed as Homo sapiens) [compound 17]	++++ (>75% = ++++)		
18 (SLSPDLSQV; listed as Homo sapiens) [compound 18]	+++ (>50 = +++)		
19 (TAYPQVVVV; listed as Homo sapiens) [compound 19]	++ (>20% = ++)		

Substance	Peptide exchange (MHC class I binding score) [1]	Wells positive [%] [2]	wells (in vitro immunogenicity) [2]
20 (VLQDELPQL; listed as Homo sapiens) [compound 20]	++++ (>75% = ++++)		
21 (IAFPTSISV; listed as Homo sapiens) [compound 21]	+++ (>50 = +++)		
22 (SAFGFPVIL; listed as Homo sapiens) [compound 22]	++ (>20% = ++)		
23 (SLLSELLGV; listed as Homo sapiens) [compound 23]	++++ (>75% = ++++)		
24 (ISAPLVKTL; listed as Homo sapiens) [compound 24]	+ (>10% = +)		
25 (NLSETASTMAL; listed as Homo sapiens) [compound 25]	++++ (>75% = ++++)	++ (20%-49% = ++)	
26 (TAQTLVRIL; listed as Homo sapiens) [compound 26]	+ (>10% = +)		
27 (ALAEQVQKA; listed as Homo sapiens) [compound 27]	+++ (>50 = +++)		
28 (YASGSSASL; listed as Homo sapiens) [compound 28]	+ (>10% = +)		
29 (FASEVSNVL; listed as Homo sapiens) [compound 29]	++++ (>75% = ++++)		
30 (FASGLIHRV; listed as Homo sapiens) [compound 30]	+++ (>50 = +++)		
31 (IAIPFLIKL; listed as Homo sapiens) [compound 31]	++++ (>75% = ++++)		
32 (YVISQVFEI; listed as Homo sapiens) [compound 32]	++++ (>75% = ++++)		
33 (ILGTEDLIVEV; listed as Homo sapiens) [compound 33]			++ (20%-49% = ++)
34 (LLWGNLPEI; listed as Homo sapiens) [compound 34]			++ (20%-49% = ++)
35 (GLIDEVMVL; listed as Homo sapiens) [compound 35]			++ (20%-49% = ++)
36 (ILVDWLVQV; listed as Homo sapiens) [compound 36]			++ (20%-49% = ++)
38 (KIQEILTQV; listed as Homo sapiens) [compound 38]			++ (20%-49% = ++)
